The target of assay [1] is 6×-His-SUMO-Avs8A (E. coli ECOR07) (UniProt B7LDL1). In words: MST.
Assay [2] shares this target. In words: mass photometry. The conditions noted are these: scale: Bas21 mcp monomers per four Avs8 monomers.
Assay [3] has as its target T1, 6×-His-SUMO-Avs8A (E. coli ECOR07, UniProt B7LDL1 1-1283).
T1 sequence (looked up): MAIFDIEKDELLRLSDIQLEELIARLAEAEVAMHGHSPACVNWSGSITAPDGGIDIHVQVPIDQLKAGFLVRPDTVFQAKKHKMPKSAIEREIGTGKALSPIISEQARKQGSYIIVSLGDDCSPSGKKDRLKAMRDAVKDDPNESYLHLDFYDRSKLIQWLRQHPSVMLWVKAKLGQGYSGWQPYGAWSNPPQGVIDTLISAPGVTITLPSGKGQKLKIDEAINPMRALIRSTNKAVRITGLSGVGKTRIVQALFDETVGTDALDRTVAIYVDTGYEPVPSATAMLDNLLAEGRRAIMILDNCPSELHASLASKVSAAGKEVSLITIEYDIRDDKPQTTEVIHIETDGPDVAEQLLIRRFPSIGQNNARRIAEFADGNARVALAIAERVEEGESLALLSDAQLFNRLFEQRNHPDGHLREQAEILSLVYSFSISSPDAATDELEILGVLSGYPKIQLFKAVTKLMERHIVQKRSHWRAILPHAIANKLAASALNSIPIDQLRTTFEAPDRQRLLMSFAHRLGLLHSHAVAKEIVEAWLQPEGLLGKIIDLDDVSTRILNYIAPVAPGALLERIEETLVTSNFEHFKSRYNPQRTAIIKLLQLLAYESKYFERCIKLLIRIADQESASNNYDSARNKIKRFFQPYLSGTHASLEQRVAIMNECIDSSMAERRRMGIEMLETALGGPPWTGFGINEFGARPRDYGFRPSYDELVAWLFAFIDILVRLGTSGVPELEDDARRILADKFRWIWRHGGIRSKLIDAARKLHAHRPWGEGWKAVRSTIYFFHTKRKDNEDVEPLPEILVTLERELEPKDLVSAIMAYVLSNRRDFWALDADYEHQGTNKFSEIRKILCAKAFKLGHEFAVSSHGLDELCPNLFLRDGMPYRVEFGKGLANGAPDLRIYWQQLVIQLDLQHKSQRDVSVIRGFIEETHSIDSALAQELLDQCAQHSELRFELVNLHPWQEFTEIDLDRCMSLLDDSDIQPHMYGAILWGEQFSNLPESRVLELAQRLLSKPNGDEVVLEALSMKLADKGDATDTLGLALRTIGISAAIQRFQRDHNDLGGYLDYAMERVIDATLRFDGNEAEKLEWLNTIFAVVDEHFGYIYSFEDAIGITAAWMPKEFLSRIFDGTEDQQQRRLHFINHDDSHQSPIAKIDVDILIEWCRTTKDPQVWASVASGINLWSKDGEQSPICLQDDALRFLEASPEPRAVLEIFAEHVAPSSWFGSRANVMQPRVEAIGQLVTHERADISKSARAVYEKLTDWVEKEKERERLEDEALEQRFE
In words: MST.

For “Bas21 major capsid protein (natural protein)”, in assay [1], the Kd (usually the constant that tells how readily two partners part at equilibrium) turned out to be 12 nM. In assay [2], the stoichiometry N (usually a count of units in the complex or per binding partner) amounted to 2.

B1: λ gpE major capsid protein (natural protein, phage λ, UniProt P03713 1-341, looked up)
chain: MSMYTTAQLLAANEQKFKFDPLFLRLFFRESYPFTTEKVYLSQIPGLVNMALYVSPIVSGEVIRSRGGSTSEFTPGYVKPKHEVNPQMTLRRLPDEDPQNLADPAYRRRRIIMQNMRDEELAIAQVEEMQAVSAVLKGKYTMTGEAFDPVEVDMGRSEENNITQSGGTEWSKRDKSTYDPTDDIEAYALNASGVVNIIVFDPKGWALFRSFKAVKEKLDTRRGSNSELETAVKDLGKAVSYKGMYGDVAIVVYSGQYVENGVKKNFLPDNTMVLGNTQARGLRTYGCIQDADAQREGINASARYPKNWVTTGDPAREFTMIQSAPLMLLADPDEFVSVQLA
Regarding B1, the Kd in assay [3] came out at 124 nM.
